This data set can be described thus: protein stability index of a GFP-peptide fusion (GPS, HEK-293T) (PSI 1-6); higher = more stable. The conditions noted are these: c terminus: a fixed tail appended.

± gives the standard deviation.
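Note: 24-mer peptide tiles fused after GFP, lentivirally expressed, FACS-sorted into six equal bins by GFP/DsRed ratio, decoded by Illumina sequencing, PSI is the read-weighted mean bin number.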

For KLRRQVIQVVLNGMESYQEVTVQR [ZER1], the protein stability index was determined as 2 ± 0.19 (treatment: DMSO) and 2.28 ± 0.57 (treatment: MLN4924 1 uM, 8 h).

For KLSARDHQKLEREARICRLLKHSN [CAMK2B], the protein stability index by setting is: (treatment: DMSO) 3.16 ± 0.47; (treatment: MLN4924 1 uM, 8 h) 3.52 ± 0.17.

For the sequence KMEEDIKEEEEKDHNEAMKPEEPP [PCMTD1], the protein stability index was 5.57 ± 0.15 (treatment: DMSO) and 5.58 ± 0.31 (treatment: MLN4924 1 uM, 8 h).

As to KMGSYYINRTFFFDVHPPLGKMLI [POMT2], the protein stability index by setting is: (treatment: DMSO) 2.95 ± 0.75; (treatment: MLN4924 1 uM, 8 h) 3 ± 0.46.

In the case of KNATRETTSTLKAWLNEHRKNPYP [IRX6], the protein stability index runs as follows: (treatment: DMSO) 3.14 ± 0.23; (treatment: MLN4924 1 uM, 8 h) 3.37 ± 0.33.

With KNGKKWEILNFNQYYEACRKAAKS [ACSBG2], the protein stability index reads like this: (treatment: DMSO) 2.49 ± 0.21; (treatment: MLN4924 1 uM, 8 h) 2.62 ± 0.57.

Turning to KPQDSSQPSDRLMTEKQQEEAEWE [CEP70], the protein stability index is, setting by setting: (treatment: DMSO) 5.59 ± 0.4; (treatment: MLN4924 1 uM, 8 h) 5.45 ± 0.46.

For the sequence KPVVNVSYRPAYDQGGPVEILPFL [DUSP5], the protein stability index is, setting by setting: (treatment: DMSO) 2.62 ± 0.14; (treatment: MLN4924 1 uM, 8 h) 2.66 ± 0.39.

As to KPYTCSVCGKSFSRTTCLFLHLRT [ZNF8], the protein stability index is 2.54 ± 0.39 (treatment: DMSO) and 2.89 ± 0.7 (treatment: MLN4924 1 uM, 8 h).

For KQEMGTYLRFIVSRMKERAIDLNK [ZMYND11], the protein stability index was 2.9 ± 0.73 (treatment: DMSO) and 2.71 ± 0.69 (treatment: MLN4924 1 uM, 8 h).

On to KQFHNEVLKAHNEYRQKHGVPPLK [GLIPR2], for which the protein stability index by setting is: (treatment: DMSO) 3.79 ± 0.19; (treatment: MLN4924 1 uM, 8 h) 3.72 ± 0.17.

Turning to KRITASEALKHPWICQRSTVASMM [CAMK2D], the protein stability index worked out at 2.61 ± 0.05 (treatment: DMSO) and 2.67 ± 0.27 (treatment: MLN4924 1 uM, 8 h).

KRLKHKDDSVMKATQQARKRNFIS [C22orf31] came in with a protein stability index (treatment: DMSO) of 4.11 ± 0.27 and a protein stability index (treatment: MLN4924 1 uM, 8 h) of 4.19 ± 0.23.

As for KRPARLHTKPSQAPAVEVAPAGAS [NOP53], the protein stability index was found to be 4.77 ± 0.42 (treatment: DMSO) and 4.96 ± 0.19 (treatment: MLN4924 1 uM, 8 h).

For KRQAVNKAVANMQGEMDRKCKQVK [ZMYND11], the protein stability index worked out at 4.6 ± 0.68 (treatment: DMSO) and 4.71 ± 0.45 (treatment: MLN4924 1 uM, 8 h).

For the sequence KRSSRRVQRHNSFSPNSPQFNVSG [NECAB1], the protein stability index worked out at 4.12 ± 0.19 (treatment: DMSO) and 4.27 ± 0.13 (treatment: MLN4924 1 uM, 8 h).

On to KSEGLSGRVLRKLPFLAHALYVQA [TRIP13], for which the protein stability index (treatment: DMSO) was 2.3 ± 0.58 and the protein stability index (treatment: MLN4924 1 uM, 8 h) amounted to 2.13 ± 0.42.

Turning to KSKPDRKRAESDSRKSSIPNNKEI [PTPRD], the protein stability index is, setting by setting: (treatment: DMSO) 5.329 ± 0.046; (treatment: MLN4924 1 uM, 8 h) 5.46 ± 0.16.

As to KTKKLYIDSRARRNLGSINTELQD [SEC22B], the protein stability index runs as follows: (treatment: DMSO) 3.87 ± 0.22; (treatment: MLN4924 1 uM, 8 h) 4.08 ± 0.21.

As to KVASSDLVNMGISVVSYTLKDIHD [FLOT1], the protein stability index reads like this: (treatment: DMSO) 2.34 ± 0.17; (treatment: MLN4924 1 uM, 8 h) 2.37 ± 0.29.

For KWMERYLRDKTVMIIVAISPKYKQ [TRAF3IP2], the protein stability index came out at 2.65 ± 0.97 (treatment: DMSO) and 2.44 ± 0.34 (treatment: MLN4924 1 uM, 8 h).

As to KYEHELALRQTVEADVNGLRRVLD [KRT16], the protein stability index is 3.98 ± 0.15 (treatment: DMSO) and 4.09 ± 0.15 (treatment: MLN4924 1 uM, 8 h).

Turning to KYSLPWTTLDEFPLTRLGQLKACT [KCNG1], the protein stability index is, setting by setting: (treatment: DMSO) 2.42 ± 0.25; (treatment: MLN4924 1 uM, 8 h) 2.61 ± 0.34.

As for LAATTSMAYAKLMLTVMTKYQANI [FANCE], the protein stability index by setting is: (treatment: DMSO) 2.92 ± 0.32; (treatment: MLN4924 1 uM, 8 h) 3.26 ± 0.72.

With LAGSESLPVETLGPASRMDPESER [PBXIP1], the protein stability index runs as follows: (treatment: DMSO) 5.2 ± 0.18; (treatment: MLN4924 1 uM, 8 h) 5.21 ± 0.21.

Consider LATQEPTDNQVRLRKRKEIREDRD [DLC1], for which the protein stability index (treatment: DMSO) amounted to 5.41 ± 0.24 and the protein stability index (treatment: MLN4924 1 uM, 8 h) came out at 5.39 ± 0.16.

For LAVRSLRRVGGSRILLRMTLGREV [NLN], the protein stability index came out at 2.73 ± 0.68 (treatment: DMSO) and 2.37 ± 0.55 (treatment: MLN4924 1 uM, 8 h).

LDAMNYHLMPFRQHCRQSLASRIR [KLHL14]: the protein stability index by setting is: (treatment: DMSO) 2.48 ± 0.46; (treatment: MLN4924 1 uM, 8 h) 2.2 ± 0.24.

Regarding LDGHTISDLSRSSRGELIPISPST [MYBL2], the protein stability index worked out at 4.14 ± 0.13 (treatment: DMSO) and 4.33 ± 0.3 (treatment: MLN4924 1 uM, 8 h).

Turning to LDSNGAGEKSENNSSNSDIVHVEK [BCL2L13], the protein stability index reads like this: (treatment: DMSO) 5.57 ± 0.22; (treatment: MLN4924 1 uM, 8 h) 5.6 ± 0.13.

With LDVWLSGGNDLCVWNRKLDLLCKT [WDR41], the protein stability index reads like this: (treatment: DMSO) 2.28 ± 0.35; (treatment: MLN4924 1 uM, 8 h) 2.19 ± 0.31.

With LEHGSIYIPSSYVDSHHEYPAMTF [ESR2], the protein stability index reads like this: (treatment: DMSO) 2.19 ± 0.18; (treatment: MLN4924 1 uM, 8 h) 2.06 ± 0.56.

Consider LEQRGTHAVVGVATALAPLQTDHY [SPSB2], for which the protein stability index (treatment: DMSO) worked out at 3.6 ± 0.31 and the protein stability index (treatment: MLN4924 1 uM, 8 h) came to 3.65 ± 0.15.

With LEYLYTANVTLSLDTVEEVLSVSK [KLHL14], the protein stability index is, setting by setting: (treatment: DMSO) 2.41 ± 0.66; (treatment: MLN4924 1 uM, 8 h) 1.96 ± 0.36.

For LFEDIVAREYYSEADASHCIQQIL [CAMK2A], the protein stability index runs as follows: (treatment: DMSO) 2.36 ± 0.069; (treatment: MLN4924 1 uM, 8 h) 2.62 ± 0.35.

LFFVPCIFLYARPNSTFPIDKSMT [OR4A15]: the protein stability index is, setting by setting: (treatment: DMSO) 3.15 ± 0.51; (treatment: MLN4924 1 uM, 8 h) 3.43 ± 1.4.

For the origin of these results see the supplement of paper PMC10567573.
